Assay results: patent publication US20240002470A1, “Method for separation and/or detection and/or in vitro quantification of infectious compounds in biological material” (priority 2020, published 2024)

System: S. aureus, SA 378804
Assay: Capture of S. aureus SA 378804 on magnetic microbeads, culture and counting
Format: binding, Staphylococcus aureus
Conditions: S. aureus SA 378804 colonies from captured beads
Experimental: One ml of the culture of bacteria to be studied is placed in a hemolysis tube. 100 μl of buffer are added, the trade name of which is TTGB, then 20 μl of microbeads. The tube is stirred horizontally, to mix the microbeads well, and incubated at 37° C. or at room temperature (TA=22° C.) for half an hour. At the end of the incubation, the microbeads are separated from the liquid phase by means of a magnet, placed externally against the wall of the tube. The microbeads are then washed twice with LB medium and then resuspended in 1 ml of BTS culture medium (Tripticase-Soy broth) having the following formulation: […]
This culture medium is brought to a boil and then autoclaved, to make it sterile, before use. 20 μl of the microbead suspension are taken and spread in a Petri dish containing TS agar (Trypticase-Soya agar) having the following formulation: […]
The Petri dishes are incubated at +37° C. for 24 hours. The bacteria that have grown on the agar are then counted.
The used bacterium is a strain of Staphylococcus aureus (S. aureus), SA 378804, isolated from the wound of the foot of a diabetic person, Sotto et al., Diabetes Care (2008) 31 (12), p. 2318-24. The same experiment as that described in the previous example was carried out.

B1: β2GPI: plasma glycoprotein called β2-glycoprotein I, grafted on beads as the reference (protein, UniProt P02749 20-345, looked up)
Beta-2-glycoprotein 1: GRTCPKPDDLPFSTVVPLKTFYEPGEEITYSCKPGYVSRGGMRKFICPLTGLWPINTLKCTPRVCPFAGILENGAVRYTTFEYPNTISFSCNTGFYLNGADSAKCTEEGKWSPELPVCAPIICPPPSIPTFATLRVYKPSAGNNSLYRDTAVFECLPQHAMFGNDTITCTTHGNWTKLPECREVKCPFPSRPDNGFVNYPAKPTLYYKDKATFGCHDGYSLDGPEEIECTKLGNWSAMPSCKASCKVPVKKATVVYQGERVKIQEKFKNGMLHGDKVSFFCKNKEKKCSYTEDAQCIDGTIEVPKCFKEHSSLAFWKTDASDVKPC
modifications: grafted on beads
With B1 the “% compared to β2GPI” value was 100%.
